Results on three substances are retold here after patent US20060172357A1, “Detecting human antibodies in non-human serum” (Genentech, priority 2004, published 2006).

The target in test [1] is full-length CD20 molecule (human) (UniProt P11836). As to the kind of experiment: ELISA, full-length CD20 coated at 1 µg/mL in PBS, detection sheep anti-hu IgG HRP (monkey adsorbed).
Test [2] shares this target. As to the kind of experiment: ELISA, full-length CD20 coated at 5 µg/mL in PBS, detection sheep anti-hu IgG HRP (monkey adsorbed). (In general: In an ELISA, binding on a coated surface is turned into a signal by an enzyme label.)
For test [3] the target is unchanged. As to the kind of experiment: ELISA, full-length CD20 coated at 1 µg/mL in PBS, detection goat anti-hu F(ab')2 HRP.
For test [4] the target is unchanged. As to the kind of experiment: ELISA, full-length CD20 coated at 5 µg/mL in PBS, detection goat anti-hu F(ab')2 HRP.
Test [5] concerns the target T1, disulfide-cyclized mono-biotin CD20 35-mer.
T1 sequence (peptide, N-terminal biotin; C-terminal amide; disulfide-cyclized): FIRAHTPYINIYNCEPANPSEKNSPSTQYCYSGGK
As to the kind of experiment: SPR Biacore 3000, method 1: Mono-CD20-35mer on streptavidin chip at 95 RU, 2H7-IgG injected, 1:1 model, apparent KD. In general terms: In SPR one partner is held on a chip, and binding of the other changes the refractive index at the surface.

Test [6] concerns the target T2, biotinylated CD20 35-mer (streptavidin plate ELISA; mono- or bis-biotin form not stated).
T2 sequence (peptide, biotinylated (mono or bis not stated); C-terminal amide; disulfide-cyclized): T1 sequence (peptide, N-terminal biotin; C-terminal amide; disulfide-cyclized)
As to the kind of experiment: ELISA, streptavidin plate with CD20 35-mer at 10 µg/ml, 1 wash cycle between steps, goat anti-human IgG (H+L) HRP detection.

Test [7] shares this target. As to the kind of experiment: ELISA, streptavidin plate with CD20 35-mer at 10 µg/ml, 2 wash cycles between steps, goat anti-human IgG (H+L) HRP detection.
The target in test [8] is disulfide-cyclized Bis-biotin CD20 51-mer. As to the kind of experiment: SPR Biacore 3000, method 2: Bis-CD20-51mer on streptavidin chip at 1037 RU, 2H7-IgG injected, bivalent analyte model, apparent KD.
Test [9] concerns the target T2, biotinylated CD20 35-mer (streptavidin plate ELISA; mono- or bis-biotin form not stated). Nature of the test: ELISA, streptavidin plate with CD20 35-mer at 10 µg/ml, 3 wash cycles between steps, goat anti-human IgG (H+L) HRP detection.
Test [10] shares this target. Nature of the test: ELISA, streptavidin plate with CD20 35-mer at 2 µg/ml, 1 wash cycle between steps, goat anti-human IgG (H+L) HRP detection.
Test [11] concerns the target Bis-biotin disulfide-cyclized CD20 35-mer. As to the kind of experiment: SPR Biacore 3000, method 2: Bis-CD20-35mer on streptavidin chip at 685 RU, 2H7-IgG injected, bivalent analyte model, apparent KD.
In test [12] the target is T2, biotinylated CD20 35-mer (streptavidin plate ELISA; mono- or bis-biotin form not stated). Nature of the test: ELISA, streptavidin plate with CD20 35-mer at 20 µg/ml, 2 wash cycles between steps, goat anti-human IgG (H+L) HRP detection.
Test [13] shares this target. Nature of the test: ELISA, streptavidin plate with CD20 35-mer at 20 µg/ml, 1 wash cycle between steps, goat anti-human IgG (H+L) HRP detection.
Test [14] addresses rhuMAb2H7. Nature of the test: direct sandwich ELISA, sheep anti-human IgG capture, goat anti-human IgG HRP detection, buffer E (HEPES) in all steps, n = 8.
The target of test [15] is rhuMAb2H7. As to the kind of experiment: bridging ELISA, sheep anti-human IgG capture and detection; blocking D, sample diluent D1, detection diluent D1.
The target in test [16] is rhuMAb2H7. Nature of the test: bridging ELISA, sheep anti-human IgG capture and detection; blocking D, sample diluent D, detection diluent A.
Test [17] deals with rhuMAb2H7. Nature of the test: bridging ELISA, sheep anti-human IgG capture and detection; D1 + 0.2% rabbit IgG in blocking, sample and detection buffers.
The target of test [18] is rhuMAb2H7. As to the kind of experiment: direct sandwich ELISA, sheep anti-human IgG capture, goat anti-human IgG (H+L) HRP detection diluted in Buffer A + 5 mM EDTA (A3).
The target in test [19] is rhuMAb2H7. Nature of the test: bridging ELISA, sheep anti-human IgG capture and detection; D1 + 0.2% donkey IgG in blocking, sample and detection buffers.
In test [20] the target is rhuMAb2H7. Nature of the test: direct sandwich ELISA, sheep anti-human IgG capture, goat anti-human IgG (H+L) HRP detection diluted in Buffer D.
Test [21] addresses rhuMAb2H7. Nature of the test: bridging ELISA, sheep anti-human IgG capture and detection; D1 + 0.2% mouse IgG in blocking, sample and detection buffers.
The target of test [22] is rhuMAb2H7. Nature of the test: bridging ELISA, sheep anti-human IgG capture and detection; blocking D, sample diluent D, detection diluent D.
For test [23], the target named is rhuMAb2H7. Nature of the test: bridging ELISA, sheep anti-human IgG capture and detection; blocking D1 + 0.2% fish gelatin, other diluents not given.
For test [24], the target named is rhuMAb2H7. Nature of the test: direct sandwich ELISA, sheep anti-human IgG capture, goat anti-human IgG HRP detection, buffer D (with BGG) in all steps, n = 8.
Test [25] deals with rhuMAb2H7. Nature of the test: direct sandwich ELISA, sheep anti-human IgG capture, goat anti-human IgG (H+L) HRP detection diluted in Buffer A.
The target of test [26] is rhuMAb2H7. As to the kind of experiment: direct sandwich ELISA, sheep anti-human IgG capture, goat anti-human IgG HRP detection, buffer A in all steps, n = 8.
Test [27] deals with rhuMAb2H7. Nature of the test: direct sandwich ELISA, sheep anti-human IgG capture, goat anti-human IgG HRP detection, buffer C (with BGG) in all steps, n = 8.
In test [28] the target is rhuMAb2H7. Nature of the test: direct sandwich ELISA, sheep anti-human IgG capture, goat anti-human IgG (H+L) HRP detection diluted in Buffer A + 0.25% CHAPS (A4).
Test [29] has as its target rhuMAb2H7. Nature of the test: direct sandwich ELISA, sheep anti-human IgG capture, goat anti-human IgG (H+L) HRP detection diluted in Buffer A + 0.2% BGG (A2).
Test [30] concerns the target rhuMAb2H7. As to the kind of experiment: direct sandwich ELISA, sheep anti-human IgG capture, goat anti-human IgG HRP detection, buffer B in all steps, n = 8.
Test [31] concerns the target rhuMAb2H7. As to the kind of experiment: direct sandwich ELISA, sheep anti-human IgG capture, goat anti-human IgG (H+L) HRP detection diluted in Buffer D - BGG (D1).
Test [32] deals with rhuMAb2H7. Nature of the test: direct sandwich ELISA, sheep anti-human IgG capture, goat anti-human IgG (H+L) HRP detection diluted in Buffer A + 0.35 M NaCl (A1).

Chain of full-length CD20 molecule (human) (P11836 whole entry): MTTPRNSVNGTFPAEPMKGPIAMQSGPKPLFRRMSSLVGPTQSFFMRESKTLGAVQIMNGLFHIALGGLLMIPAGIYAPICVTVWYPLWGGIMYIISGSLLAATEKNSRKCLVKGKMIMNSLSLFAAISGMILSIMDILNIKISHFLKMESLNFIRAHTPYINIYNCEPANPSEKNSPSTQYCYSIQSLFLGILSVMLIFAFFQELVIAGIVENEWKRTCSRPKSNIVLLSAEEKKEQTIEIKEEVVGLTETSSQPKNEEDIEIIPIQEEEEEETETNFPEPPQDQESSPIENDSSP
Chain of rhuMAb2H7 (antibody) (VH): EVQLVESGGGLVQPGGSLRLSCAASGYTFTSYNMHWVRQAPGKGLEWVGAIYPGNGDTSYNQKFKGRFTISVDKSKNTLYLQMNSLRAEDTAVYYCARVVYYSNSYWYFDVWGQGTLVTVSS
Chain of rhuMAb2H7 (antibody) (VL): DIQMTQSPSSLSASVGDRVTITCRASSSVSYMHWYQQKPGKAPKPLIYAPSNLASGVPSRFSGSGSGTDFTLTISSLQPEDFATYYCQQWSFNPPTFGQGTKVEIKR
Chain of disulfide-cyclized Bis-biotin CD20 51-mer (peptide, as listed by the source): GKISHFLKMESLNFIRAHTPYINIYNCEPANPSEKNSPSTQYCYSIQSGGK

Take Rituxan (antibody): the signal of 247 ng/ml of Rituxan (O.D.450 nm) in test [1] was 0.012 O.D; in test [2], 0.023 O.D; in [3] it was 0.065 O.D; in [4] it was 0.166 O.D.
rhuMAb2H7 (antibody): the Kd came to 41700 nM in [5], 110 nM in [8] and 500 nM in test [11]. Further, the O.D. (450-650 nm) for 160 µg/ml of rhuMAb2H7 in [6] was determined as 0.063 O.D; in test [7] it was 0.009 O.D; in test [9], 0.009 O.D; in [10] it was 0.063 O.D; in test [12], 0.01 O.D; in test [13] it was 0.055 O.D.
For “sheep anti-human IgG heavy (H) and light (L) chain, cynomolgus monkey serum adsorbed (Cat #CUS1684, The Binding Site) (antibody)”, the Signal, O.D. 450-650 nm at 240 ng/ml rhuMAb2H7 with rhuMAb2H7 [14] stood at 2.1 O.D; with rhuMAb2H7 [24] it was 1.72 O.D; in the test with rhuMAb2H7 [26], 2.04 O.D; with rhuMAb2H7 [27] it was 1.88 O.D; with rhuMAb2H7 [30], 1.91 O.D. For the same substance, the Signal of 2H7 at 240 ng/ml in the test with rhuMAb2H7 [15] was determined as 1.04 O.D; with rhuMAb2H7 [17], 0.06 O.D; in the test with rhuMAb2H7 [19] it was 0.38 O.D; with rhuMAb2H7 [21], 0.09 O.D; with rhuMAb2H7 [22] it was 1.15 O.D; with rhuMAb2H7 [23], 0.34 O.D. The Signal of 256 ng/ml of 2H7 in the test with rhuMAb2H7 [16] was found to be 1.6 O.D. Moreover, the 240 ng/ml 2H7 (O.D. 450-650 nm) with rhuMAb2H7 [18] turned out to be 2.13 O.D; with rhuMAb2H7 [20] it was 0.962 O.D; with rhuMAb2H7 [25], 2.23 O.D; in the test with rhuMAb2H7 [28], 2.15 O.D; in the test with rhuMAb2H7 [29] it was 2.28 O.D; with rhuMAb2H7 [31], 1.65 O.D. Further, in the test with rhuMAb2H7 [32], the 240 ng/ml 2H7 (O.D. 450-650 nm) turned out to be 2 O.D.
